The DeepSol protein solubility set

Test: soluble on expression in E. coli; label from the status in PepcDB or PDB records

Sequence | soluble on expression in E. coli
MGSDKIHHHHHHMKIPKRLQPLVDDGLIDDVLQRLKSGKEADVYTVLCGDKIQCAKVYKEAMQRSFKQAVQYQEGRKVRNTRNARAMQKSSKFGRKQQEESWQTAEVEALFRLANAGVRVPQPYICIDGVLLMELVTDVDGAVAPRLSDVILTEESAIADFDTMIRNIVRMLCVGIVHGDLSEFNVLIDAQGPVIIDLPQAVDAAANNHAESMFARDVNNITAYYGQFAPQLLQTRYAQEIWMLYEDGKLTPETALTGLFVEAVHEVDMGSLIDEIIAAEDEFYERQRAKKERDDE | not soluble
MGSDKIHHHHHHMKIVAIDTSTKQLSVALSDGQQILAEASYVTSLNHATKLMPLLERMMQEVNWSPRDLTRIVIADGPGSYTGLRIGATTAKTLAYTLGIDLVPVSTLELMAASAGSTGRIVAIQDARRGTGFVGFYEEGQLVGEEQHTVIADFVKTLPTDTKITGDTDKFTTELQSFTIVDPAFRAPRAGVLALLGAKREPVETHAFEPRYLRLAEAEAKWIEAQRHD | not soluble
MGSDKIHHHHHHMKKIQLTNAHKEKLFQIPLFRDLPLNIKESLLDKLDFVIYAADKKEIVVTQGTPCNKLYVLLEGKLRTDIIDGLGNEVMIEYIIAPRTFATPHLFNSNNTLPATFTALEDSVVLMATKDSTFKVISQDPQVLHNFLCIAGNCNICTVSRLKPLSRKTVRERFIVYLFEHKKKDSLTVEIMHTQSQLAEYLNVSRPALSKEINKIIKEGLITMEGKKIEILNKMALEKYL | not soluble
MGSDKIHHHHHHMKKKTAVVFGTFAPLHQGHIDLIQRAKRQCDQVWVVVSGYEGDRGEQVGLTLQKRFRYIREAFRGDELTLVCKLDETNLPRYPMGWQEWLDQMLAEISYDETQQELIFFVGEADYQQELSNRGFETVLQERKFGISATMIRENPSKYWKNIAQPFRRQFTKKVLIMGSASNGKTTLAKDLARYYDAPVSLEYAREYQIKNNVRDDELTPKDYYYLLLGQYDQTSKLIDSNANRGLVIADTNSLVTKGYYDYYMETEDQGDLSGETFDNLFVSILAKEKWDLILFVQPVGSYVNDGFRDMTMAEDHIRHSFSQHLDHMRERYLTTIPLVYLAEDYLGNYEAAKVAIDAIYQAD | not soluble
MGSDKIHHHHHHMKKLENKKSSSIKLETVRRKTINLSETEFIKIDFLTHWETLPIVLKPNIDYLDLADWIESSQNFIETKLLKYGAILFRGFNVDTATTFERVCLALCSDLFNENGEHPRKSVSGKVYTPVSYPADKKLLWHNENSFNYSWPRKILFGCLQPAQQGGETPIVDSRIVFQLIDPKIRERFIDKKVMYIRNYGDRLGLNWETVFQTSDRLEVEAACTKAAIDFEWKTGNRLRTIAVRPAVVKHPQTKEMSWFNQAQHWHPACLDSQTRESLLSMFKQEDLPRNCYYGDGSLIEDSVLEEICGVYQQLEVSFPWKRGDLLLLDNLLTAHSRNSYMGERQLLVAMGEMANFEDV | not soluble
MGSDKIHHHHHHMKKLLAIGILCIMVTAVMSGCVSEKEININNSNKITTNMPVSEKNITKILKYAKNMNLIYYDENGNIVNPYNGDKWKYKVFIDATGQKFLLKNKDDPVPSWAKEKLGDNFKVINVPLTRVIVMSSTEIALMEAINDDGSVIGSVKGIMWGKSYKWYFKDINKSLAEGKIIDVGSSSNPNWDKIIEINPQVIFVYPGYDGDKIIAKCKELGITYVADAEYLENDPLGRCEWVKMFAAFYNKEPEAKRYFEKVEDNCLKVINKTKNCPKVTVAWGYNSQWGCYVPENNSYVAKEIMFYCNGDYIFKDLNGTGSAKINYETFAERAKDADVWVVPSSTAWLSTFKEDNPGYETFKAVKNGRVFCESDDYWQLGLLKTDEVIMDLATILHPEAFKGRKTHFFLKYNIENNTATPFIAK | not soluble
MGSDKIHHHHHHMKKLVFDYEMKLSFSSPVTDHRFQLRCIPATGPRQQVIDVAVKIEPDVELETTIDSFDSVVMTGFIPEPHTMFNYSVTGIAFVDNAHIKSEIYKPLYRFNSALTVPGPAIEALIGICHERIVSLPADCTPIDQAREVMDEVFKTFVYTPASTTIRTTAEEAFAQRKGVCQDYAHVMLSVCRHVGLTARYIAGLLGGEGATHAWVEIYHDGRWVGLDPTHNRMVDDNYITIAHGRDYRDCMLDIGIFSGCDVKQDQWVNASVHEQGY | not soluble
MGSDKIHHHHHHMKKQPLAYRMRPSNIDEVIGQQHLVGEGKIIRRMVDAGQLSSMILYGPPGVGKTSIAQAIAGSTDTHYKLLNAVVNNKKDMEIVVEEAKMSGQLILILDEVHRLDKGKQDFLLPHLEKGLLILIGATTANPFHSINPAIRSRCQIFELTPLTTDEIKVALTRALTDKTHGLGEEPVVISDEALAHFAFACGGDVRSALNGLELAVRSTQPNVKGEKEITLSVAEECIQRKSFHHDKDGDAHYDVLSAFQKSIRGSDVNAALHYLARLIEAGDLVSIGRRLLVIAYEDIGLANPQAGPRTLAAIEAAERLGFPEGRIPLANAVVELCLSPKSNSAYVALDAAIADIRKGHVGSVPAHLKDAHYKGAEQLGRGIGYKYPHDYERGWVKQQYLPDSLKSRAYYEPKRTGKFEDALADVYEKLRKSTFSKES | not soluble
MGSDKIHHHHHHMKKRLGSQTARIDSKPRIVSAVSMVGPKEGRGPLKDYFDIILSDDMNGEESFEKAESNMLYTVITEVIKKSNLTENDIDYLFAGDLLNQITSSSFAARDAKIPFYGLYGACSTMTESLSIAAMIMDGGFADYTIAATSSHFSAAERQFRYPLEYGSQRKPDAQWTVTGAGAMLLARQGDFPYITFVTAGKVKDYGITSPDSMGEAMAPAAVDTIKQHFKDTGRTPQDYDVIATGDLGRVGKKITEDLLKKEYGYDMSNIYMDCGEKIFNCDEQDTNSGGSGCGCSAVVDCGYIYKNMLSGKIKKALLISTGALMSTTSNLQGESIPGIAHAVSIEFGGMKNE | not soluble
MGSDKIHHHHHHMKKYMRTCSPRLAKEKYCTGCMACSDACTHDAIKIVEKNCMPFVKVDTHKCMNCHLCEKACPIITPVKKNRAEEMNVYGGWANDEQTRIDAASGGGFSGLAQSFFHLHKEDKVAVIGATLANNRVYHQLIEQEKDIVLLTNSKYIQSDTQGIYKEVIERLKTGYWILFSGCPCQIAGLYGFLGKKRDSERLITIEVVCHGIASYEALDLHLKYYNSSRIYRFRDKRHGTQDWKQSQCTTIEQNGEEIKLKRKDDMFYAIYAGWMLDRKSCSNCQFAEINRVADITIADFWGLQVPDYYKQGVSLIIANNNKADTMIKAADAIYTFKESLRTAINGNPHLFTGYKLIQFHPIVMWPDFFRKILPKRIRFKILTNRMPYKLFWALYKLGTIYLVKYQKKQLISKFQKDDNLLKLLNNANRGGGKMA | not soluble
MGSDKIHHHHHHMKLEKILQDLEQNHNLRTLTPLKHENKFVYKQDHKLLNLVGNDYLYLASSKELKAEFLNTLKEQDLFFSSSSSRSLSGNFEIYEKLESFLKTKFKDKEILHFNSGYHLNISCIAALSSVSKTLFLTDKFIHASMIDGLRLGRADFFRFHHKDMNHLESLIQKHYENYENIIVLSEALFSMDGDFSDFKTLCELKRRYDKIKLYIDEAHSVGCFDEEGLGLVKKLALENEVDFLVFTFGKALASMGACIICDEKYKKFFINKARAFIYSTALPPINVAWTQFIFKKMPYFKKEREKLELLSTFFKSKLQEKNHIVLGDAYIICLLLGENKKALEISQKLQKAGFFAPAIKEPTVPKNTARIRFSLHAGLNTEELERIIELL | not soluble
MGSDKIHHHHHHMKLMRIQEMEEYILSHGTVSLDELCQVFNVSKNTVRRDINKLTEKGAIEKVYGGVTSIEKTALVPFENRTIQHQDEKTKIAHYASRFIEDHDLVFIDSGTTTKSILDTLDPAKNVTILTNSLDIINAASALKNINLIIIGNNYKRKTRSFVGMDDPAMLDKYNINKAFMSATGTTLTHGLTNSDLLEYEIKKRISEKAKEVYLLADHSKFGKSTLLTYAPFDRLHCIVTSQPLDDEYTQYCNEHQIGIHLA | not soluble
MGSDKIHHHHHHMKLRILSDLHIEHAMPQAVPACDADIVILAGDIANGRDGIDWAARTFGQPLIYVPGNHEYYEGNVDAVDRLMADAAATHPGVHLLNGAVAEFSGASGRVRVLGTTWWTDYCLFGTDRREASMQACSAVMLDHRLIELNGDDGHLRHFSPEDALARHHIASAWLAGQLALPFDGKTVVVTHHGPDLGSLDPRYSHDLVSGGFLSRRPDLVAQADLWIHGHTHTSFDYCIDTSRVVCNPRGYVSRRTGELENSRFDWCCVVEI | not soluble
MGSDKIHHHHHHMKLVVATNFDDSLLEGLKRYPDVKYIFGSFKRTITGHGRAGFIVPHIKEEQFETHISLAHSYGIKFLYTMNTNTLLGKEYDTEFIGKVMKEVDKLVNFGVDGFIVALPFLIRLIRTEYPDLEVSASSFSRIRNVREVEEYTNLGVNTIIMHEDANRDFKLLKEVAALSRANRFEIELILNNSCLYGCPFRLTHDNISSVTSMVNGVNDVWFEYPVLLCATDVLNDPANLIRSRWIRPEDIKYYEEIGINRFKIAGRNKKTDWILRVVKAYAERKYEGDLLDLVSYPQGRAATKAVQMVNGPSSYFILTSVRIDNTKFPKGWIKFFFTNDCDTRSCKECKYCDIVAERVMTVNGEPFKSSEWSIRQPYPINIIPKFKERK | not soluble
MGSDKIHHHHHHMKLYKLLILDIDGTLRDEVYGIPESAKHAIRLCQKNHCSVVICTGRSMGTIQDDVLSLGVDGYIAGGGNYIQYHGELLYNQSFNQRLIKEVVCLLKKREVAFSIESQEKVFMNQKAKEIFETMNQLKGTNSCINKQHIQEKITYENNIEEYKSQDIHKICLWSNEKVFDEVKDILQDKMELAQRDISSQYYEIIQKDFHKGKAIKRLQERLGVTQKETICFGDGQNDIVMFQASDVTIAMKNSHQQLKDIATSICEDIFDNGIYKELKRRNII | not soluble
MGSDKIHHHHHHMKMEELFKKHKIVAVLRANSVEEAKEKALAVFEGGVHLIEITFTVPDADTVIKELSFLKEKGAIIGAGTVTSVEQCRKAVESGAEFIVSPHLDEEISQFCKEKGVFYMPGVMTPTELVKAMKLGHTILKLFPGEVVGPQFVKAMKGPFPNVKFVPTGGVNLDNVCEWFKAGVLAVGVGSALVKGTPDEVREKAKAFVEKIRGCTE | soluble
MGSDKIHHHHHHMKNLLDLTGKLNIYSPKFNRYQTSLMKIDMHRTKLEQKQPHFDAQKRRKKECKNSNTPFVRPKLELPHGHNKLLLHSCCAPCSGEVMEAIHASGIDFTIYFYNPNIHPLKEYLIRKEENIRFAEKWGIPFIDADYDRQNWFDRAKGMEDEPERGIRCTMCFDMRFEKAAQYAHENGFPVFTSCLGISRWKDMNQINGCGHRAAEKYDDVVYWDYNWRKGGGSQRMIEISKRERFYQQEYCGCVYSLRDTNKWREANGRQKIEIGKLYYSADK | not soluble
MGSDKIHHHHHHMKNNLNNILEDSLNYKIGETLDELKSIKKLDEIFSKRKDQLYREKDEGKKVYGRFCVFVPTEIICAADAIPVGLCGGKESTIPSAEEDLPRNICPLIKSSYGFKKDKACPYFEASDVIVGETTCDGKKKMFEHMAELSEMYVMHLPHFKDERSYELWLKEVYDFKDYVEKFTGNKITEEKLKEAIDEENEERMLSHKLYELRSQIPTPITGKDALKIFQRSFLLDIKDRLAILKEVISELEERVKNGEGYTGKRILVAGCPMVAGNTKIVDIIEEVGGLVVGEETCTGTRKFDNLVNGYTIDDLAERYFKINCASAFKNDSRIERIKELVKEQNADGVVYYTLQYCHTFNVEGALIEKELKNLGIPIIRIETDYSESDKEQIKTRLEAFVEMI | not soluble
MGSDKIHHHHHHMKNPNTVISSDYGPIIINLNDNAIGRQISQYGYWATDDINIINTLVNVQLDKFGQIMFYDVGANIGTHSLAIAKTHPDTVAIRAFEAQRQVFNMLCGTMAINGLSNVHCHHNAISEKIGDFIDIPIPDYNSANNFGSLELIPPKNSDNQGIIHSGKMESVKTLSIDSFNEKVDFIKMDIEGMEDKALLGAINTIEHHRPILFLEILKTDVNFVMTFLRERGYLGFQKSFDLIAIPIEYQLQVNGTNRVF | not soluble
